This is an account of results in patent US20160168210A1, “DERIVATIVES OF COLLAGEN-BINDING HAIRPIN PEPTIDES” (NATIONAL RESEARCH COUNCIL OF CANADA, priority 2012, published 2016).

Entries after “also recorded” stand apart in the source; their conditions may differ. Where no end group is shown, it is not given here.

The target in assay [1] is rat-tail collagen type I (Rattus norvegicus, UniProt P02454+P02466). Put plainly: Collagen binding/responsiveness of peptides by proton NMR and H-15N HSQC spectroscopy. On the set-up: rat-tail collagen type I (at 4 mg/ml in 0.02 N acetic acid); purchased BD Bioscience; host or cells: rat tail (tissue-derived). To be noted: for response to / binding of collagen (NMR spectral perturbations): peptide free in solution vs in the presence of collagen; for NMR perturbations after collagen gelation (polymerization); reversibility of collagen binding: before vs after collagen gelation. The procedure: Rat collagen hydrogels were prepared using rat-tail collagen type I (at 4 mg/ml in 0.02 N acetic acid) from BD Bioscience. A volume of 200 μL of the concentrated collagen solution was mixed with an equal volume of a buffer solution that was 400 mM in Tris-HCl and 400 mM in NaCl with a pH of 7.6 and with 50 μL of deuterated water (D2O). The sample mixture was transferred to an NMR tube followed by gentle mixing under agitation using a Thermolyne™ Max Mix-II apparatus. The NMR tube containing the collagen solution was placed within the RF probe housed in a 500 MHz super-conducting magnet (Bruker Avance-500 NMR spectrometer). The probe and sample bulk temperature was kept at 277 K for 3 hours and then elevated to 310 K at a rate of 1 degree/10 min to enable fibril alignment during a slow process of collagen gelation under the influence of the magnetic field (Ma 2008). The degree of fibril alignment of the collagen hydrogels was determined by use of deuterium NMR spectroscopy of the added D2O as described (Ma 2008). […]
Chain of rat-tail collagen type I (Rattus norvegicus, UniProt P02454+P02466) (P02454 152-1207 limits assumed): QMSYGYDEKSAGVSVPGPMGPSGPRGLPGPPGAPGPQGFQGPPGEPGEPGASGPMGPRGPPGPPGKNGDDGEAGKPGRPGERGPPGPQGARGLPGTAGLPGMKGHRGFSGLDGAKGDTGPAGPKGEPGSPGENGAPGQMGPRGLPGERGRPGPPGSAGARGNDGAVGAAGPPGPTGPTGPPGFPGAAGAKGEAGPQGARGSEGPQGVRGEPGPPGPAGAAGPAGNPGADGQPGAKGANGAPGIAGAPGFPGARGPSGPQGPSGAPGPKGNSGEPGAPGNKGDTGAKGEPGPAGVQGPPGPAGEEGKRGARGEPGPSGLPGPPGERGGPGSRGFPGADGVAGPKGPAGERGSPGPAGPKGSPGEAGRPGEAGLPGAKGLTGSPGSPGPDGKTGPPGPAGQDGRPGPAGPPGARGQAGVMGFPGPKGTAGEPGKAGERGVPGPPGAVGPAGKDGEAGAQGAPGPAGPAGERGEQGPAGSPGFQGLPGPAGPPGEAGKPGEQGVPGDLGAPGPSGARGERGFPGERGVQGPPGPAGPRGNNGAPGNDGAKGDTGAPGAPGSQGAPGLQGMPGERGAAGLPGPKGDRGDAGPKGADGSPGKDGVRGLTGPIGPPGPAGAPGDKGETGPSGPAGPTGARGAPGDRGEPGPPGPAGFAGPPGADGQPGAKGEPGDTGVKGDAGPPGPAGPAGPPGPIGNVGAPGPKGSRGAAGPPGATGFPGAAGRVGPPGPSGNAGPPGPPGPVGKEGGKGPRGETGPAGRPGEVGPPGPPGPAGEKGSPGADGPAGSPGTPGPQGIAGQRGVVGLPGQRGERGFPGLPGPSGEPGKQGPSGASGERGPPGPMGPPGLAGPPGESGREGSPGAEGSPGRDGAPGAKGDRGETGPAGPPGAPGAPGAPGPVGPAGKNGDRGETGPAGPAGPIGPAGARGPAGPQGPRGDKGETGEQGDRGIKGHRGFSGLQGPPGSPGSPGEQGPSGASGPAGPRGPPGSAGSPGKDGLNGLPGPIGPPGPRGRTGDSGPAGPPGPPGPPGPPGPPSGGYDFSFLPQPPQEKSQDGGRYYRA
Chain of rat-tail collagen type I (Rattus norvegicus, UniProt P02454+P02466) (P02466 86-1125 limits assumed): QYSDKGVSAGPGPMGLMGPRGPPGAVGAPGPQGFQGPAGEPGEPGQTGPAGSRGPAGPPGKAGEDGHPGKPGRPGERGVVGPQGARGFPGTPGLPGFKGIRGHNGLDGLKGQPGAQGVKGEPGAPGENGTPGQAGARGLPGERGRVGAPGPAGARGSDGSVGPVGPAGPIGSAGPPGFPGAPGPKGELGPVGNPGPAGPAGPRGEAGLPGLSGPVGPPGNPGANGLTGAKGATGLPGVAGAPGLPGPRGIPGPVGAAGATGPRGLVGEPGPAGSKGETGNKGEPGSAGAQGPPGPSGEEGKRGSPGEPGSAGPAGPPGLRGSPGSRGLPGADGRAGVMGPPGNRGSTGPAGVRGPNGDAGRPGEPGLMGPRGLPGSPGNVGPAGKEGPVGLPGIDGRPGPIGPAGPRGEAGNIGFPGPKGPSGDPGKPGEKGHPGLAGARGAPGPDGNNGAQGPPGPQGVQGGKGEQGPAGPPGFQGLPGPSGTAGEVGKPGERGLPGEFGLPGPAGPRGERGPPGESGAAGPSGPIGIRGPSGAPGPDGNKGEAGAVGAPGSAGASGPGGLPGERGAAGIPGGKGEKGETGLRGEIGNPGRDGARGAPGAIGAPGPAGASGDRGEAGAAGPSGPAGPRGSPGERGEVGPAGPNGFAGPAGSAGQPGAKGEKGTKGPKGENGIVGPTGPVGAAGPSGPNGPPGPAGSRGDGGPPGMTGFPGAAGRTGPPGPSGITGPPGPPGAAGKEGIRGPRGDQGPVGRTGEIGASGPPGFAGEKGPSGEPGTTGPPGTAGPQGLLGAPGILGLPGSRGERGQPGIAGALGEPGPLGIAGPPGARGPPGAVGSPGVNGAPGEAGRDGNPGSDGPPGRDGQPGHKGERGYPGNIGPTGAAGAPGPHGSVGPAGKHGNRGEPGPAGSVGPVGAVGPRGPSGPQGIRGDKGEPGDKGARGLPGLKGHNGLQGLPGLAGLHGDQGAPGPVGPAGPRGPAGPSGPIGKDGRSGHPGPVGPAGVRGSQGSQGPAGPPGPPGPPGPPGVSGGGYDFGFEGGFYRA
Randomly-deposited collagen (hydrogel) matrix was prepared following the same procedure as above for partially aligned hydrogels, except that the RF probe and the NMR tube (or test tubes) containing the collagen solution were placed outside the magnetic field. Peptides containing collagen-binding hairpins were introduced into the hydrogels in two ways, the first with the collagen stock solution diluted (50:50 in volume ratio) by the buffer of 400 mM in Tris-HCl and 400 mM in NaCl at pH 7.6 containing the peptides of interest (i.e. for FIGS. 1A & 1D), which gelates in the presence of the added peptide. Alternatively, peptides in an appropriate buffer were introduced to the top of the hydrogel matrix (i.e. for FIGS. 1B & 1C) preformed in the NMR tube (or test tube) following the procedures described above. The behavior of the peptides in the hydrogels was followed by use of NMR H-^15N HSQC spectra for ^15N-labelled peptides (FIG. 1) and/or by use of one-dimensional proton NMR spectroscopy (FIG. 2).
Deuterium NMR spectroscopy studies of collagen responsiveness (and/or binding) for each peptide were carried out using a volume of (400-X) μL of a peptide dissolved in pure water mixed with 50 μL of a 10×PBS (phosphate-buffered saline) supplemented by sodium phosphate to a final concentration of 50 mM, with 50 μL of deuterated water (D2O) to form the reference sample (where X=0), or the peptide-collagen complex with X μL of rat-tail collagen type I (at 3.6 to 4 mg/ml in 0.02 N acetic acid from BD Bioscience) adjusted to achieve the desired final concentration of collagen. The pH value of the reference peptide samples was adjusted to match the pH of the final peptide-collagen complex in order to facilitate NMR spectral comparison. The peptide-collagen solutions were also subjected to gelation under magnetic field guidance followed by the measurement of fibril alignment (Ma 2008) as a semi-quantitative indication of peptide-collagen binding. Deuterium coupling constants measuring the degree of collagen fibril alignment were reduced by more than 1.0 Hz for MH2-wZIP4, by less than 0.5 Hz for MH2-wZIP6 and MH2-wZIP5, which parallel those observed for trpzip4, trpzip6, trpzip5 and the gb1 peptide (see Example 4). As a comparison, a solution of rat collagen at a concentration of 1.8 mg/ml in 200 mM Tris-Cl/200 mM NaCl at pH 7.6 formed a partially-aligned hydrogel with a deuterium coupling constant (Ma, 2008) of 2.5 Hz, while a solution of rat collagen at a concentration of 3 mg/ml in PBS (137 mM NaCl/2.68 mM KCl/10.1 mM Na2HPO4/1.76 mM KH2PO4) supplemented with Na2HPO4 to achieve a final concentration of 50 mM at pH 7.4 formed a partially-aligned hydrogel with a deuterium coupling constant of 4.8 Hz. A solution of human collagen at a concentration of 2.23 mg/ml in PBS supplemented with Na2HPO4 with a final concentration of 50 mM at pH 7.4 formed a partially-aligned hydrogel with a deuterium coupling constant of 1.3 Hz.

The target in assay [2] is T1, rat-tail collagen type I (rat, UniProt P02454 152-1207; P02466 86-1125).
T1 construct: also called type-I collagen; unpolymerized collagen
T1 sequence (P02454 152-1207 limits assumed, chain 1 of 2): as the sequence (P02454 152-1207 limits assumed) above
T1 sequence (P02466 86-1125 limits assumed, chain 2 of 2): as the sequence (P02466 86-1125 limits assumed) above
Put plainly: proton NMR, free against with collagen.

Take “SWTVENGKVTWK (W2W11-trpzip2 - does not bind collagen) [reference compound]”: the “response to / binding of collagen (NMR spectral perturbations)” value (from here on “response to / binding of collagen”) in assay [1] was “loses the collagen-binding capacity”.

In the case of “acetyl-STWTWNGTNWTRNDGGK (Ac-STWTWNGTNWTRNDGGK)”, in assay [1], the “NMR perturbations after collagen gelation (polymerization); reversibility of collagen binding” value (from here on “NMR perturbations … of collagen binding”) is “certain degree of reversibility” and the “response to / binding of collagen” value is “bind to type-I collagen”. Consider “GEWVWDDATKTWHWTE (GEWVWDDATKTWHWTE-NH2) [trpzip8, reference compound]”, for which the “response to / binding of collagen” value in assay [1] is “CBLH peptides”. As for “SWTYEGNKYTWK (SWTYEGNKYTWK-NH2) [Y4Y9-trpzip1, reference compound]”, the “response to / binding of collagen” value in assay [1] was “retain the collagne-binding capacity”. On the same count and under the same terms, for “SWTYENGKYTWK (SWTYENGKYTWK-NH2) [WYYW-trpzip2, reference compound]” the value was “retains a significant capacity for binding collagen”. Take “GEWTYNPATGKWTWTE (GEWTYNPATGKWTWTE-NH2) [CBLH1]”: in assay [1], the “NMR perturbations … of collagen binding” value is recorded as “certain degree of reversibility” and the “response to / binding of collagen” value is on record as “almost identical collagen-binding characteristics”. On to KEWTYNPATGKWTWTE [CBLH3], for which, in assay [1], the “NMR perturbations … of collagen binding” value was “certain degree of reversibility” and the “response to / binding of collagen” value is recorded as “almost identical collagen-binding characteristics”. For “GEWTWNPATGKWTRTE (GEWTWNPATGKWTRTE-NH2) [CBLH2]”, in assay [1], the “NMR perturbations … of collagen binding” value is recorded as “certain degree of reversibility” and the “response to / binding of collagen” value is “almost identical collagen-binding characteristics”. In the case of “IRFTDGEWTWDDA (MH2-wZIP4-F1 - does not bind collagen)”, the “response to / binding of collagen” value in assay [1] is “does not respond to collagen binding”. Regarding “KTWNPATGKWTE (HP7 - does not bind collagen) [reference compound]”, the “response to / binding of collagen” value in assay [1] is “does not respond to the addition of collagen”.

Turning to “KKWTWNPATGKWTWQE (KKWTWNPATGKWTWQE-NH2) [HP5W4, reference compound]”, the “response to / binding of collagen” value in assay [1] is “CBLH peptides”. The same measure, in the same setting: for “SWTYEGNKWTWK (SWTYEGNKWTWK-NH2) [Y4-trpzip1, reference compound]” the value was “retain the collagne-binding capacity”. For TWTWNGTNWTRN (CBLH peptide - v4-gp160), in assay [1], the “response to / binding of collagen” value was “responsive to the presence of collagen”.

As for “acetyl-STWTWNGSAWTWNEGGK (Ac-STWTWNGSAWTWNEGGK)”, in assay [1], the “NMR perturbations … of collagen binding” value is listed as “essentially irreversible” and the “response to / binding of collagen” value is “bind to type-I collagen”. Consider “SWTWEGNKWTWK (SWTWEGNKWTWK-NH2) [trpzip1, reference compound]”, for which the “response to / binding of collagen” value in assay [1] is given as “respond to collagen”.

Regarding “SWTWENGKWTWK (SWTWENGKWTWK-NH2) [trpzip2, reference compound]”, in assay [1], the “response to / binding of collagen” value is “collagen-binding linear hairpin (CBLH) peptide”.

As to “IRFTDGGSWTWEGNKWTWKGGDFEEIPEEYLQ (MH2-wZIP1GG - molecule of Formula (I))”, the “response to / binding of collagen” value in assay [1] is recorded as “responds similarly to collagen binding”. In the case of “MH2-wZIP6: bivalent thrombin inhibitor containing the trpzip6 sequence (WO/2012/142696) (GEWTWDDATKTWTVTE; also: bivalent thrombin inhibitor, other parts, small tags and cut ends not in chain)”, in assay [1], the “NMR perturbations … of collagen binding” value is on record as “reduced degree of proton NMR signal perturbations” and the “response to / binding of collagen” value was “varying degrees of entrapment”.

Take “TWTWNGSAWTWN (CBLH peptide - v4-gp120) [reference compound]”: the “response to / binding of collagen” value in assay [1] is given as “respond to collagen”. Consider “TWRWNGSTAWTWS (CBLH peptide - pp-D7EUT8)”, for which the “response to / binding of collagen” value in assay [1] is recorded as “some proton NMR perturbations are observed”. For “GEWTWDDATKTWTWTEGDFEEIPEEYL (MH2-wZIP4-F3 - molecule of Formula (I))”, the “response to / binding of collagen” value in assay [1] is recorded as “responds fully to collagen”.

In the case of “GEWTWDDA (MH2-wZIP4-F2 - does not bind collagen)”, in assay [1], the “response to / binding of collagen” value was “lack of binding with collagen”. As for “MH2-wZIP5: bivalent thrombin inhibitor containing the trpzip5 sequence (WO/2012/142696) (GEWTYDDATKTFTWTE; also: bivalent thrombin inhibitor, other parts, small tags and cut ends not in chain)”, in assay [1], the “NMR perturbations … of collagen binding” value is listed as “reduced degree of proton NMR signal perturbations; also recorded: more pronounced loss of resonance perturbations as compared to MH2-wZIP6” and the “response to / binding of collagen” value is given as “varying degrees of entrapment”.

Consider “KEWTWNPATGKWTRTE (KEWTWNPATGKWTRTE-NH2) [CBLH4]”, for which, in assay [1], the “NMR perturbations … of collagen binding” value is on record as “certain degree of reversibility” and the “response to / binding of collagen” value is “almost identical collagen-binding characteristics”.

B1: MH2-wZIP4-F1 (peptide)
peptide: IRFTDGEWTWDDA
notes: also called P4233
B1: the binding result in assay [2] is on record as “no binding”.

B2: IRFTDGEWTWDDATKTWTWTE-GGS-VHpro10 (protein)
chain: IRFTDGEWTWDDATKTWTWTEGGSDVQLQASGGGLVQAGGSLRLTCAASGRTFDRYGWFRQAPGKEREFVASIGTRLHYADSVKGRFTISRDNAKSTAFLEMNSLKPEDTAVYYCAAAESTRNWYYKMSNDYDYWGQGTQVTVSSLEHHHHHH
modifications: WZ4-GGS-VHpro10 - molecule of Formula (I)
notes: trpzip4-VH conjugate, VHpro10 is a prothrombin-specific antibody VHH fragment
In the case of B2, in assay [1] (collagenase treatment), the “NMR perturbations / release after collagen degradation by a collagenase” value was “gradually came into view while the collagen gel dissembles in the presence of a collagenase”.

B3: W2W11-trpzip2 (peptide)
peptide: SWTVENGKVTWK
Regarding B3, the binding result in assay [2] is recorded as “no binding”.

B4: MH2-wZIP4-F2 (peptide)
peptide: GEWTWDDA
notes: also called P4236
B4: in assay [2], the binding result is listed as “no binding”.

B5: gb1 (peptide)
peptide: GEWTYDDATKTFTVTE-NH2
notes: also called gb1 peptide; gb1-NH2
With B5, in assay [2], the binding result is given as “no binding”.

B6: HP7 (peptide)
peptide: KTWNPATGKWTE
In the case of B6, the binding result in assay [2] is reported as “no binding”.
